Test results published in patent US10287554B2, “Induced pluripotent stem cell model for Fabry disease and use thereof” (KOREA ADVANCED INSTITUTE OF SCIENCE AND TECHNOLOGY, priority 2013, dated 2019).

Columns and labels:
Format in all cases: cell-based, human
Conditions in all cases: 10 μg/ml for 5 days, compared with before treatment (FIG. 15)
[1] = tested on: FB-iPSCs (Fabry disease patient originated iPSCs); experiment: Gb3 deposit by anti-Gb3 immunofluorescent staining in FB-iPSCs after Fabrazyme treatment
Experimental: (§1) Particularly, the FB-iPSCs prepared in Example <1-2> were treated with phosphate buffered saline (PBS) containing 4% formaldehyde, followed by fixing at room temperature for 15 minutes. The cells were treated with 0.1% triton X-100 to give permeability to the cell membrane. After the treatment, the cells were added with 4% normal donkey serum, followed by blocking at room temperature for 1 hour. The cells were treated with the primary antibody such as anti-OCT4 antibody (1:300, R&D Systems, USA), anti-NANOG antibody (1:300, Cell signaling technology, USA), anti-SSEA-4 antibody (1:300, R&D Systems, USA), anti-SOX2 rabbit antibody (BD Transduction Laboratories, USA), anti-Tra-1-81 antibody (1:300, Millipore, USA) or anti-Tra-1-60 antibody (1:300, Millipore, USA), followed by culture overnight at 4° C. Then, the cells were washed several times with PBST (PBS containing 0.1% Tween-20). The cells were treated with Alexa Fluor 488 or Alexa Fluor 594-conjugated secondary antibody (Invitrogen, USA), followed by further culture for 1 hour, leading to immunofluorescent staining of FB-iPSCs.
To investigate whether or not the pharmacologic treatment during the FB-iPSC differentiation was effective in improving Fabry disease, the differentiation of vascular cells was induced from FB-iPSCs and then the cells were treated with Fabrazyme, the α-galactosidase recombinant protein. […]

[2] = tested on: vascular smooth muscle cells differentiated from FB-iPSCs; experiment: Gb3 deposit by anti-Gb3 immunofluorescent staining in FB-iPSC originated vascular smooth muscle cells after Fabrazyme treatment
Experimental: as §1
(§2) Particularly, the FB-iPSCs developed by the same manner as described in Example <1-2> were chopped in even sizes of 300˜500 μm in diameter by using a 10 μl syringe needle. […]

[3] = tested on: vascular endothelial cells differentiated from FB-iPSCs; experiment: Gb3 deposit by anti-Gb3 immunofluorescent staining in FB-iPSC originated vascular endothelial cells after Fabrazyme treatment
Experimental: as §1, §2

B1: Fabrazyme: the α-galactosidase recombinant protein (GLA recombinant protein), belonging to agalsidase beta (protein, UniProt P06280 32-429, looked up)
Alpha-galactosidase A: LDNGLARTPTMGWLHWERFMCNLDCQEEPDSCISEKLFMEMAELMVSEGWKDAGYEYLCIDDCWMAPQRDSEGRLQADPQRFPHGIRQLANYVHSKGLKLGIYADVGNKTCAGFPGSFGYYDIDAQTFADWGVDLLKFDGCYCDSLENLADGYKHMSLALNRTGRSIVYSCEWPLYMWPFQKPNYTEIRQYCNHWRNFADIDDSWKSIKSILDWTSFNQERIVDVAGPGGWNDPDMLVIGNFGLSWNQQVTQMALWAIMAAPLFMSNDLRHISPQAKALLQDKDVIAINQDPLGKQGYQLRQGDNFEVWERPLSGLAWAVAMINRQEIGGPRSYTIAVASLGKGVACNPACFITQLLPVKRKLGFYEWTSRLRSHINPTGTVLLQLENTMQMSLKDLL
B1 was tested. Which Gb3 deposit [1] did it give?
Its Gb3 deposit is “significantly reduced and hardly detected”.

And the Gb3 deposit [2]?
Its Gb3 deposit is “significantly reduced and hardly detected”.

And the Gb3 deposit [3]?
The Gb3 deposit was “significantly reduced and hardly detected”.
